In PMC8413462 one finds Kd data, which are given here for one substance.

pKd: −log10 of the molar value.

The target of this data set is T1, Snu13 (Saccharomyces cerevisiae) (UniProt P39990).
T1 sequence: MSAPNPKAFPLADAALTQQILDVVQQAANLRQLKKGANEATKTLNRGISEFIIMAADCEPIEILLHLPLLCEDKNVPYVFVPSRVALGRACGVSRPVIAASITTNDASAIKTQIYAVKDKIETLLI
Kind of data set: EMSA. The note with it: EMSA: annealed in 10 mM Tris-HCl, 100 mM NaCl, 1 mM EDTA, pH 7.5; 4 C, 10% native PAGE; 10 pmol Cy5-RNA (~2 uM) or 0.5 nmol unlabeled RNA. RNP: 20 mM Na …. (In general: Mobility shift assays separate free from complexed probe on a gel.)

For snR41-kl1, the pKd (usually −log10 of the Kd, conventionally taken in molar units) is under 5.00.
